In patent US20040049009A1, “Methods for improving the antagonistic/agonistic properties of peptidic antagonists/agonists of the corticotropin-releasing factor receptor (crfr)” (priority 2000, published 2004):
Ends that are not written are not given here.

How the values were obtained:
[1] = target: T1, rat CRF binding protein C-terminally fused with a His6 sequence (rat) (UniProt P24388); experiment: SPA competition with 0.1 nM [125I-Tyr0]h/rCRF, His-tagged rCRFBP; 95% CI (45-70)
T1 sequence: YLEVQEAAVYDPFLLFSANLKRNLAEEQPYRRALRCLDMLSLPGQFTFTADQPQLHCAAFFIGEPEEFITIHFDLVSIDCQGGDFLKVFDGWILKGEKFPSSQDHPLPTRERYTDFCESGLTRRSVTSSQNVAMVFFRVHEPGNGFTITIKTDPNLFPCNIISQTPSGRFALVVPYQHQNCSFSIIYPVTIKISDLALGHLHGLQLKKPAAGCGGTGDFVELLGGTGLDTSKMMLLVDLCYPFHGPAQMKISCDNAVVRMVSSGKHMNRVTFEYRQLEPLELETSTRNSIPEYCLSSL

[2] = target: mouse CRF receptor, type 2β (mouse) (UniProt Q60748); experiment: SPA competition with 0.05 nM [125I-Tyr0]Svg, HEK-293 membranes; 95% CI (0.72-1.1)
[3] = target: mouse CRF receptor, type 2β (mouse) (UniProt Q60748); experiment: SPA competition with 0.05 nM [125I-Tyr0]Svg, HEK-293 membranes; 95% CI (0.56-1.1)
[4] = target: T1, rat CRF binding protein C-terminally fused with a His6 sequence (rat); experiment: SPA competition with 0.1 nM [125I-Tyr0]h/rCRF, His-tagged rCRFBP; 95% CI (0.66-1.0)

QGPPISIDLSLELLRKMIEIEKQEKEKQQAANNRLLLDTI (ligand, ends and bridges not checked) [sauvagine] was tested. Which IC50 [1] did it give?
The IC50 was 57 nM.

What about the IC50 [2] of the same binder?
The IC50 was 0.92 nM.

Which results are given for QGPPISIDLSLELLRKMIEIARAEKEKQQAANNRLLLDTI (ends and bridges not checked) [[Ala^21,23Arg^22]Svg]?
IC50 [3]: 0.82 nM; IC50 [4]: 0.84 nM
